Holding throughout (assay): purified protein
What all share (conditions): Mg2+ as the activating cation

Substrate in series [1]: Nc1ncnc2c1ncn2[C@@H]1O[C@H](COP(=O)(O)O)[C@@H](O)[C@H]1O
Substrate in series [2]: NC(=O)c1ccc[n+]([C@@H]2O[C@H](COP(=O)([O-])O)[C@@H](O)[C@H]2O)c1
Substrate in series [3]: NC(=O)C1=CN([C@@H]2O[C@H](COP(=O)(O)OP(=O)(O)OC[C@H]3O[C@@H](n4cnc5c(N)ncnc54)[C@H](O)[C@@H]3O)[C@@H](O)[C@H]2O)C=CC1
Substrate in series [4]: NC(=O)c1ccc[n+]([C@@H]2O[C@H](COP(=O)(O)OP(=O)(O)OC[C@H]3O[C@@H](n4cnc5c(N)ncnc54)[C@H](O)[C@@H]3O)[C@@H](O)[C@H]2O)c1

B1: UshA (Escherichia coli K-12) (protein)
chain: YEQDKTYKITVLHTNDHHGHFWRNEYGEYGLAAQKTLVDGIRKEVAAEGGSVLLLSGGDINTGVPESDLQDAEPDFRGMNLVGYDAMAIGNHEFDNPLTVLRQQEKWAKFPLLSANIYQKSTGERLFKPWALFKRQDLKIAVIGLTTDDTAKIGNPEYFTDIEFRKPADEAKLVIQELQQTEKPDIIIAATHMGHYDNGEHGSNAPGDVEMARALPAGSLAMIVGGHSQDPVCMAAENKKQVDYVPGTPCKPDQQNGIWIVQAHEWGKYVGRADFEFRNGEMKMVNYQLIPVNLKKKVTWEDGKSERVLYTPEIAENQQMISLLSPFQNKGKAQLEVKIGETNGRLEGDRDKVRFVQTNMGRLILAAQMDRTGADFAVMSGGGIRDSIEAGDISYKNVLKVQPFGNVVVYADMTGKEVIDYLTAVAQMKPDSGAYPQFANVSFVAKDGKLNDLKIKGEPVDPAKTYRMATLNFNATGGDGYPRLDNKPGYVNTGFIDAEVLKAYIQKSSPLDVSVYEPKGEVSWQ
As to B1, the Michaelis-Menten constant (Km) came to 1.2 ± 0.1 µM in “purified protein [1]”, 11.1 ± 1.3 µM in “purified protein [2]”, 7.0 ± 0.8 µM in “purified protein [3]” and 5.3 ± 0.6 µM in the series “purified protein [4]”. In addition, the turnover number (kcat) in the series “purified protein [1]” is 405 ± 4 s⁻¹; in “purified protein [2]”, 1492 ± 31 s⁻¹; in the series “purified protein [3]”, 10.0 ± 0.2 s⁻¹; in the series “purified protein [4]”, 19.3 ± 0.9 s⁻¹.

In general, Km refers to the concentration of substrate that gives half-maximal velocity. By kcat is commonly meant the number of substrate molecules converted per active site and unit of time at saturation.

Source of the values: paper doi:10.1101/480269v2.
